Data reported in PMC9292375, “Structural basis of an epitope tagging system derived from Haloarcula marismortui bacteriorhodopsin I D94N and its monoclonal antibody GD‐26” (The Febs Journal, 2021).
Where “and” joins values, the source holds several entries; their conditions need not be identical. Equal values may be shown once.

Experiments:
Test in all cases: ITC; synthetic peptide in the syringe titrated into GD-26 Fab or GD-26 IgG (10 μM) in the cell; 25 °C; 50 mM Tris, 150 mM NaCl, pH 7.5; one-set-of-sites model
Settings in all cases: both partners purified
[1] = molecular target: T1, TD peptide (GTGATPADD), peptide V from the C terminus of HmBRI D94N (Haloarcula marismortui HmBRI C terminus …)
T1 construct: nine residues at the C terminus of Haloarcula marismortui bacteriorhodopsin I (HmBRI); residue numbers 1-9 count on: the TD peptide; also called TD tag; wild-type TD peptide; source: synthetic peptide
T1 chain: GTGATPADD

TD peptide A7R = molecular target: T2, TD peptide A7R (A7R (stands in the printed letters))
T2 construct: TD peptide (C terminus of HmBRI) with A7R; numbers count on: the TD peptide; source: synthetic peptide
T2 chain: GTGATPRDD

TD peptide P6G = molecular target: T3, TD peptide P6G (P6G (stands in the printed letters))
T3 construct: TD peptide (C terminus of HmBRI) with P6G; numbers count on: the TD peptide; source: synthetic peptide
T3 chain: GTGATGADD

[2] = molecular target: T4, TD peptide M1 (Met attached to the N terminus) (Haloarcula marismortui HmBRI C-terminal …)
T4 construct: TD peptide (C terminus of HmBRI) with one Met attached before Gly1; source: synthetic peptide
T4 chain: MGTGATPADD

TD peptide G1M = molecular target: T5, TD peptide G1M (G1M (stands in the printed letters))
T5 construct: TD peptide (C terminus of HmBRI) with G1M; numbers count on: the TD peptide; source: synthetic peptide
T5 chain: MTGATPADD

TD peptide A7T = molecular target: T6, TD peptide A7T (A7T (stands in the printed letters))
T6 construct: TD peptide (C terminus of HmBRI) with A7T; numbers count on: the TD peptide; source: synthetic peptide
T6 chain: GTGATPTDD

TD peptide A7Q = molecular target: T7, TD peptide A7Q (A7Q (stands in the printed letters))
T7 construct: TD peptide (C terminus of HmBRI) with A7Q; numbers count on: the TD peptide; source: synthetic peptide
T7 chain: GTGATPQDD

TD peptide D9N = molecular target: T8, TD peptide D9N (D9N (stands in the printed letters))
T8 construct: TD peptide (C terminus of HmBRI) with D9N; numbers count on: the TD peptide; source: synthetic peptide
T8 chain: GTGATPADN

TD peptide A7S = molecular target: T9, TD peptide A7S (A7S (stands in the printed letters))
T9 construct: TD peptide (C terminus of HmBRI) with A7S; numbers count on: the TD peptide; source: synthetic peptide
T9 chain: GTGATPSDD

TD peptide A7Y = molecular target: T10, TD peptide A7Y (A7Y (stands in the printed letters))
T10 construct: TD peptide (C terminus of HmBRI) with A7Y; numbers count on: the TD peptide; source: synthetic peptide
T10 chain: GTGATPYDD

[3] = molecular target: T11, TD peptide N2 (Gly1 and Thr2 deleted) (Haloarcula marismortui (strain ATCC …))
T11 construct: TD peptide residues 3-9 (Gly1 and Thr2 deleted); numbers count on: the TD peptide; source: synthetic peptide
T11 chain: GATPADD

TD peptide A7P = molecular target: T12, TD peptide A7P (A7P (stands in the printed letters))
T12 construct: TD peptide (C terminus of HmBRI) with A7P; numbers count on: the TD peptide; source: synthetic peptide
T12 chain: GTGATPPDD

TD peptide A7E = molecular target: T13, TD peptide A7E (A7E (stands in the printed letters))
T13 construct: TD peptide (C terminus of HmBRI) with A7E; numbers count on: the TD peptide; source: synthetic peptide
T13 chain: GTGATPEDD

[4] = molecular target: T1, TD peptide (GTGATPADD), peptide V from …

Kd [1]: 12 nM | Kd (TD peptide A7R): 171 nM | Kd (TD peptide P6G): 892 nM | Kd [2]: 25.1 nM | Kd (TD peptide G1M): 46.5 nM | Kd (TD peptide A7T): 449 nM | Kd (TD peptide A7Q): 59.3 nM | Kd (TD peptide D9N): 132 nM | Kd (TD peptide A7S): 72.7 nM | Kd (TD peptide A7Y): 73.4 nM | Kd [3]: 548 nM | Kd (TD peptide A7P): 1040 nM | Kd (TD peptide A7E): 46.4 nM | Kd [4]: 19.8 nM and 19.4 nM | dH [4]: -13.4 kcal/mol | stoichiometry N [4]: 0.93 sites
B1: GD-26 Fab (antigen-binding fragment of monoclonal antibody GD-26) (Fab, V domains shown)
VH: QVQLRQSGPELVKPGASVKMSCRASGYTFTNYNIHWVRQRPGQGLEWIGWIYPVDGTTKYNEKFKDKTTLTSDKSSSTAYMSLSGLTSEDSAIYFCARGLDNWGQGTSVTVSS
VL: DVVLTQTPLSLSVTIGQPASISCRSSQRLLYSNGKTYLNWFQQRPGQAPKYLMFQVSKLGPGIPARFSGSGSETDFTLKISRVEAEDLGVYYCFQGTFFPHTFGGGTKLEMK
notes: Fab heavy chain of GD-26; whole chain in PDB 7DOH; light chain of GD-26; the Fab was secreted; source: Expi293F, transient co-transfection, secreted; purified (HisTrap Excel, Superdex 200 gel filtration)
